Experimental data taken from paper PMC7995614, “Arabidopsis thaliana 3-mercaptopyruvate sulfurtransferases interact with and are protected by reducing systems” (The Journal of Biological Chemistry, 2021).
Where a chain is given by its changes, count along the chain named.

What was measured:
Cys333 = Cys333 (UniProt position 333, PIMASCGTGVT); test: chemical modification (H2O2 inactivation) with activity readout; conditions: Not stated for the pH pre-incubation. The activity assay was at 25 °C.; Not stated (100 mM buffers); 100 mM sodium citrate, MES, phosphate or borate buffers for the pre-incubation. Activity assay in 30 mM Tris-HCl pH 8.0.; Reduced enzyme (DTT-reduced and desalted), 2 uM, no substrate during the 3 min pre-incubation
STR1 [1] = target: T1, STR1 (Arabidopsis thaliana, UniProt O64530); test: intrinsic tryptophan fluorescence quenching; format: binding
T1 construct: untagged (pET28a) or C-terminal His tag (used for Cys variants); E. coli BL21(DE3)
T1 sequence (O64530 57-379): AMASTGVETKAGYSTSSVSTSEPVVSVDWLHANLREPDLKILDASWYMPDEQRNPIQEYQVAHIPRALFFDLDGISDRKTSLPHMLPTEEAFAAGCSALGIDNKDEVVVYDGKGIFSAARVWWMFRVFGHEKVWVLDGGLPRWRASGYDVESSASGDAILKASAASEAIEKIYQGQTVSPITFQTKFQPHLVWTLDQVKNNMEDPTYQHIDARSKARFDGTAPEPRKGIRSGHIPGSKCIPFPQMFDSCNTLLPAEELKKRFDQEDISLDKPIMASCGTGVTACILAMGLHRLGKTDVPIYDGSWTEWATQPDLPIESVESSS

STR2 [2] = target: T2, STR2 (Arabidopsis thaliana, UniProt Q24JL3); test: intrinsic tryptophan fluorescence quenching; format: binding
T2 construct: untagged, pET12a; E. coli BL21(DE3)
T2 sequence (Q24JL3 1-342 limits assumed): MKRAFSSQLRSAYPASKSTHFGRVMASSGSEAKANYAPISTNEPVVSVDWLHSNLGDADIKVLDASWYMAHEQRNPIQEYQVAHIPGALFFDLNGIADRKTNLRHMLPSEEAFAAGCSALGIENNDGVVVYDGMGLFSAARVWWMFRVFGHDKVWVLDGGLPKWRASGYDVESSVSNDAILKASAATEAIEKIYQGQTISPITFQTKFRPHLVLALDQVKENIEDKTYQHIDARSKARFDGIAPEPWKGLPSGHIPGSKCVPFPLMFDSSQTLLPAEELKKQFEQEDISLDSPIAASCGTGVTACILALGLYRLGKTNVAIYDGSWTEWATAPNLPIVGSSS

STR1 [3] = target: T3, STR1 (Arabidopsis thaliana, UniProt O64530, C333S); test: intrinsic tryptophan fluorescence quenching; format: binding; conditions: 2 μM protein, 100-fold excess 3-MP, pH 8.0; catalytic Cys variant
T3 construct: untagged (pET28a) or C-terminal His tag (used for Cys variants); E. coli BL21(DE3)
T3 sequence (O64530 57-379 C333S): T1 sequence (O64530 57-379) with C277S

STR2 [4] = target: T4, STR2 (Arabidopsis thaliana, UniProt Q24JL3, C298S); test: intrinsic tryptophan fluorescence quenching; format: binding; conditions: 2 μM protein, 100-fold excess 3-MP, pH 8.0; catalytic Cys variant
T4 construct: untagged, pET12a; E. coli BL21(DE3)
T4 sequence (Q24JL3 1-342 C298S limits assumed): T2 sequence (Q24JL3 1-342 limits assumed) with C298S

Cys298 = Cys298 (UniProt position 298, PIAASCGTGVT); test: chemical modification (H2O2 inactivation) with activity readout; conditions: Not stated for the pH pre-incubation. The activity assay was at 25 °C.; Not stated (100 mM buffers); 100 mM sodium citrate, MES, phosphate or borate buffers for the pre-incubation. Activity assay in 30 mM Tris-HCl pH 8.0.; Reduced enzyme (DTT-reduced and desalted), 2 uM, no substrate during the 3 min pre-incubation
Cys = conditions: cited from earlier work
[5] = substrate: N[C@@H](CS)C(=O)O; test: H2S release, methylene blue assay; format: biochemical, Arabidopsis thaliana; conditions: apparent, sulfur acceptor, 250 μM 3-MP, pH 8.0, 25 °C
Text: (§1) H2S release, methylene blue assay on STR1

[6] = substrate: O=C(O)C(=O)CS; test: H2S release, methylene blue assay; format: biochemical, Arabidopsis thaliana; conditions: apparent, sulfur donor, acceptor 30 μM TRXo1 with NADPH and NTRB, pH 8.0, 25 °C
Text: as §1

[7] = substrate: N[C@@H](CS)C(=O)O; test: H2S release, methylene blue assay; format: biochemical, Arabidopsis thaliana; conditions: apparent, sulfur acceptor, 250 μM 3-MP, pH 8.0, 25 °C; remark: listed apart in the source
Text: (§2) H2S release, methylene blue assay on STR2

[8] = substrate: O=C(O)C(=O)CS; test: H2S release, methylene blue assay; format: biochemical, Arabidopsis thaliana; conditions: apparent, sulfur donor, acceptor 10 μM TRXh1 with NADPH and NTRB, pH 8.0, 25 °C
Text: as §2

Sulfurtransferase 1 (STR1), mitochondrial 3-mercaptopyruvate sulfurtransferase (Arabidopsis thaliana)
pKa (Cys333): 3.8 ± 0.1

O=C(O)C(=O)CS [3-MP]
Kd (STR1 [1]): 1300 ± 900 nM | Kd (STR2 [2]): 700 ± 300 nM | intrinsic tryptophan fluorescence quenching (STR1 [3]): intrinsic fluorescence of both variants also decreased after addition of 3-MP | intrinsic tryptophan fluorescence quenching (STR2 [4]): intrinsic fluorescence of both variants also decreased after addition of 3-MP

Sulfurtransferase 2 (STR2), cytosolic 3-mercaptopyruvate sulfurtransferase (Arabidopsis thaliana)
pKa (Cys298): 4.0 ± 0.1

3-mercaptopyruvate sulfurtransferase (human MST) (Homo sapiens)
pKa (Cys): 5.2 ± 0.1

B1: STR1 (Arabidopsis thaliana) (protein)
chain: T1 sequence (O64530 57-379)
notes: untagged (pET28a) or C-terminal His tag (used for Cys variants); E. coli BL21(DE3)
Km [5]: 2200 ± 400 µM | kcat [5]: 3.9 s⁻¹ | kcat/Km [5]: 1700 M⁻¹ s⁻¹ | Km [6]: 286 ± 5 µM | kcat [6]: 13.5 s⁻¹ | kcat/Km [6]: 47000 M⁻¹ s⁻¹

B2: STR2 (Arabidopsis thaliana) (protein)
chain: T2 sequence (Q24JL3 1-342 limits assumed)
notes: untagged, pET12a; E. coli BL21(DE3)
Km [7]: 1300 ± 70 µM | kcat [7]: 1.5 s⁻¹ | Km [8]: 377 ± 15 µM | kcat [8]: 9.7 s⁻¹
